Assay results reported in PMC10156912, “Mechanism of assembly, activation and lysine selection by the SIN3B histone deacetylase complex” (Nature Communications, 2023).

B1: SIN3B isoform 2 (natural protein, human, UniProt O75182-2 1-1130, looked up)
chain: MAHAGGGSGGSGAGGPAGRGLSGARWGRSGSAGHEKLPVHVEDALTYLDQVKIRFGSDPATYNGFLEIMKEFKSQSIDTPGVIRRVSQLFHEHPDLIVGFNAFLPLGYRIDIPKNGKLNIQSPLTSQENSHNHGDGAEDFKQQVPYKEDKPQVPLESDSVEFNNAISYVNKIKTRFLDHPEIYRSFLEILHTYQKEQLNTRGRPFRGMSEEEVFTEVANLFRGQEDLLSEFGQFLPEAKRSLFTGNGPCEMHSVQKNEHDKTPEHSRKRSRPSLLRPVSAPAKKKMKLRGTKDLSIAAVGKYGTLQEFSFFDKVRRVLKSQEVYENFLRCIALFNQELVSGSELLQLVSPFLGKFPELFAQFKSFLGVKELSFAPPMSDRSGDGISREIDYASCKRIGSSYRALPKTYQQPKCSGRTAICKEVLNDTWVSFPSWSEDSTFVSSKKTPYEEQLHRCEDERFELDVVLETNLATIRVLESVQKKLSRMAPEDQEKFRLDDSLGGTSEVIQRRAIYRIYGDKAPEIIESLKKNPVTAVPVVLKRLKAKEEEWREAQQGFNKIWREQYEKAYLKSLDHQAVNFKQNDTKALRSKSLLNEIESVYDEHQEQHSEGRSAPSSEPHLIFVYEDRQILEDAAALISYYVKRQPAIQKEDQGTIHQLLHQFVPSLFFSQQLDLGASEESADEDRDSPQGQTTDPSERKKPAPGPHSSPPEEKGAFGDAPATEQPPLPPPAPHKPLDDVYSLFFANNNWYFFLRLHQTLCSRLLKIYRQAQKQLLEYRTEKEREKLLCEGRREKGSDPAMELRLKQPSEVELEEYYPAFLDMVRSLLEGSIDPTQYEDTLREMFTIHAYVGFTMDKLVQNIARQLHHLVSDDVCLKVVELYLNEKKRGAAGGNLSSRCVRAARETSYQWKAERCMADENCFKVMFLQRKGQVIMTIELLDTEEAQTEDPVEVQHLARYVEQYVGTEGASSSPTEGFLLKPVFLQRNLKKFRRRWQSEQARALRGEARSSWKRLVGVESACDVDCRFKLSTHKMVFIVNSEDYMYRRGTLCRAKQVQPLVLLRHHQHFEEWHSRWLEDNVTVEAASLVQDWLMGEEDEDMVPCKTLCETVHVHGLPVTRYRVQYSRRPASP
notes: SIN3B isoform 2, human, UniProt O75182-2; codon-optimised cDNA; numbers count on: isoform 2 (O75182-2); Tag removed with 3C protease; RbBP7 was co-expressed to keep SIN3B soluble; also called SIN3 scaffold subunit; corepressor SIN3B; source: High Five insect cells, co-infected with baculoviruses of each subunit; co-purified (Strep-Tactin, GSTrap, Superose 6 SEC); not shown: StrepII, C-terminal, …

How the values were obtained:
Conditions in all cases: both partners purified
HDAC2 = target: T1, HDAC2 (human, UniProt Q92769 1-488); assay: cryo-EM structure; apo SIN3B complex; SIN3B^FL sample (full-length PHF12, 3.4 Å), SIN3B complex sample (PHF12 1-502, 3.7 Å) and SIN3B^core map (2.8 Å); subunits co-expressed with RbBP7 and co-purified, GraFix (glutaraldehyde) treated
T1 construct: HDAC2, human; codon-optimised cDNA; No tag is named for HDAC2; also called histone deacetylase 2; catalytic HDAC module; source: High Five insect cells, co-infected with baculoviruses of each subunit; co-purified (Strep-Tactin, GSTrap, Superose 6 SEC)

SIN3B isoform 2 [1] = target: B1; assay: cross-linking; XL-MS: freshly purified SIN3B complex at 1.7 μM with DSSO, on ice for 10 min, quenched with Tris pH 8, trypsin digest, LC-MS
SIN3B isoform 2 [2] = target: B1; assay: cryo-EM structure; apo SIN3B complex; SIN3B^FL sample (full-length PHF12, 3.4 Å), SIN3B complex sample (PHF12 1-502, 3.7 Å) and SIN3B^core map (2.8 Å); subunits co-expressed with RbBP7 and co-purified, GraFix (glutaraldehyde) treated
[3] = target: T2, MORF4L1 (mortality factor 4-like 1) (human, UniProt Q9UBU8 1-362); assay: as above
T2 construct: MORF4L1, human; codon-optimised cDNA; Tag removed with 3C protease; also called MRG and chromo domain-containing protein; source: High Five insect cells, co-infected with baculoviruses of each subunit; co-purified (Strep-Tactin, GSTrap, Superose 6 SEC); not shown: GST, N-terminal, cleaved
T2 sequence (Q9UBU8 whole entry, the tested form may be a part): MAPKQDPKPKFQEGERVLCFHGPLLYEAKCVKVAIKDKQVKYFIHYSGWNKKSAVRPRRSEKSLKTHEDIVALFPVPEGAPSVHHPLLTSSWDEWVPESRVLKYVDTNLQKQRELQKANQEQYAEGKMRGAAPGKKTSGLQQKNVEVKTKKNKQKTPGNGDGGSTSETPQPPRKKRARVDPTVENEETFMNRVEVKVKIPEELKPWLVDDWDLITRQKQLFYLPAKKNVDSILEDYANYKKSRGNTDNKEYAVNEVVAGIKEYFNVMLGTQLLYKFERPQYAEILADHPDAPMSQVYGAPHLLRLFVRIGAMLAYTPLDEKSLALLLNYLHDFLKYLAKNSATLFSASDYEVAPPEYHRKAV

T1 sequence (Q92769 whole entry): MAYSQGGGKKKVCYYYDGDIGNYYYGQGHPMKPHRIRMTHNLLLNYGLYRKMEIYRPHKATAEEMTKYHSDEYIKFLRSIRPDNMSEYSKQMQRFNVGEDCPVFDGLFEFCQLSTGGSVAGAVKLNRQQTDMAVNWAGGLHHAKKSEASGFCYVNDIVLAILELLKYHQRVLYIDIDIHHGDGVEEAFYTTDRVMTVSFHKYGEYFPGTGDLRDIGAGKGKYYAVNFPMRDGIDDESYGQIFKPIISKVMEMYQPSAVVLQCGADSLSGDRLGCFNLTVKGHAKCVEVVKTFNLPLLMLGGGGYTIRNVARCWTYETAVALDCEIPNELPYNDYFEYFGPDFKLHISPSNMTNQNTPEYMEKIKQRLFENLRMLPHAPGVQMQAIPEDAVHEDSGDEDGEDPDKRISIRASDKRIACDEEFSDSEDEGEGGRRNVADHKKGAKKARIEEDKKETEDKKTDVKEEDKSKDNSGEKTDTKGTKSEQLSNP

## B1
HDAC2
  stoichiometry N: 1

B2: PHF12^ΔC-terminus (residues 1-502) (domain or fragment, human, UniProt Q96QT6 1-502, looked up)
chain: MWEKMETKTIVYDLDTSGGLMEQIQALLAPPKTDEAEKRSRKPEKEPRRSGRATNHDSCDSCKEGGDLLCCDHCPAAFHLQCCNPPLSEEMLPPGEWMCHRCTVRRKKREQKKELGHVNGLVDKSGKRTTSPSSDTDLLDRSASKTELKAIAHARILERRASRPGTPTSSASTETPTSEQNDVDEDIIDVDEEPVAAEPDYVQPQLRRPFELLIAAAMERNPTQFQLPNELTCTTALPGSSKRRRKEETTGKNVKKTQHELDHNGLVPLPVKVCFTCNRSCRVAPLIQCDYCPLLFHMDCLEPPLTAMPLGRWMCPNHIEHVVLNQKNMTLSNRCQVFDRFQDTVSQHVVKVDFLNRIHKKHPPNRRVLQSVKRRSLKVPDAIKSQYQFPPPLIAPAAIRDGELICNGIPEESQMHLLNSEHLATQAEQQEWLCSVVALQCSILKHLSAKQMPSHWDSEQTEKADIKPVIVTDSSVTTSLQTADKTPTPSHYPLSCPSGIST
notes: PHF12, human, residues 1-502; lacks the poorly conserved and unstructured C-terminus; subunit of the SIN3B complex sample; also called PHF12^∆C-terminus; PHF12 residues 1-502; source: High Five insect cells, co-infected with baculoviruses of each subunit; co-purified (Strep-Tactin, GSTrap, Superose 6 SEC)
SIN3B isoform 2 [1]
  binding result: binds

B3: PHF12 (full-length) (natural protein, human, UniProt Q96QT6 1-1004, looked up)
chain: MWEKMETKTIVYDLDTSGGLMEQIQALLAPPKTDEAEKRSRKPEKEPRRSGRATNHDSCDSCKEGGDLLCCDHCPAAFHLQCCNPPLSEEMLPPGEWMCHRCTVRRKKREQKKELGHVNGLVDKSGKRTTSPSSDTDLLDRSASKTELKAIAHARILERRASRPGTPTSSASTETPTSEQNDVDEDIIDVDEEPVAAEPDYVQPQLRRPFELLIAAAMERNPTQFQLPNELTCTTALPGSSKRRRKEETTGKNVKKTQHELDHNGLVPLPVKVCFTCNRSCRVAPLIQCDYCPLLFHMDCLEPPLTAMPLGRWMCPNHIEHVVLNQKNMTLSNRCQVFDRFQDTVSQHVVKVDFLNRIHKKHPPNRRVLQSVKRRSLKVPDAIKSQYQFPPPLIAPAAIRDGELICNGIPEESQMHLLNSEHLATQAEQQEWLCSVVALQCSILKHLSAKQMPSHWDSEQTEKADIKPVIVTDSSVTTSLQTADKTPTPSHYPLSCPSGISTQNSLSCSPPHQSPALEDIGCSSCAEKSKKTPCGTANGPVNTEVKANGPHLYSSPTDSTDPRRLPGANTPLPGLSHRQGWPRPLTPPAAGGLQNHTVGIIVKTENATGPSSCPQRSLVPVPSLPPSIPSSCASIENTSTLQRKTVQSQIGPPLTDSRPLGSPPNATRVLTPPQAAGDGILATTANQRFSSPAPSSDGKVSPGTLSIGSALTVPSFPANSTAMVDLTNSLRAFMDVNGEIEINMLDEKLIKFLALQRIHQLFPSRVQPSPGSVGTHQLASGGHHIEVQRKEVQARAVFYPLLGLGGAVNMCYRTLYIGTGADMDVCLTNYGHCNYVSGKHACIFYDENTKHYELLNYSEHGTTVDNVLYSCDFSEKTPPTPPSSIVAKVQSVIRRRRHQKQDEEPSEEAAMMSSQAQGPQRRPCNCKASSSSLIGGSGAGWEGTALLHHGSYIKLGCLQFVFSITEFATKQPKGDASLLQDGVLAEKLSLKPHQGPVLRSNSVP
notes: PHF12, human, full-length; subunit of the SIN3B^FL sample; also called plant homeodomain (PHD) containing protein PHF12; source: High Five insect cells, co-infected with baculoviruses of each subunit; co-purified (Strep-Tactin, GSTrap, Superose 6 SEC)
SIN3B isoform 2 [2]
  stoichiometry N: 1
HDAC2
  stoichiometry N: 1
[3]
  stoichiometry N: 1
